{"source": "patent CN101407546A", "about": "(UNIV CHINA PHARMA, dated 2009)", "biological_target": "人肿瘤坏死因子-α (hTNF-α) (human, UniProt P01375 77-233)", "sequence (P01375 77-233 limits assumed)": "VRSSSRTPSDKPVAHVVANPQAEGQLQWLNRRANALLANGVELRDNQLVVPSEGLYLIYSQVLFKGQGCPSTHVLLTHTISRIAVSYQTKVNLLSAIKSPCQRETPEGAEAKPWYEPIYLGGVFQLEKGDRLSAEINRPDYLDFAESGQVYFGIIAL", "assay": "cell-based or functional assay", "data": [{"binder": "全人源抗hTNF-α单链抗体F6 (scFv, V domains shown) VH: QVQLLQSAAEVKKPGESLKISCKGSGYSFTSYWIGWVRQMPGKGLEWMGIIYPGDSDTRYSPSFQGQVTISADKSISTAYLQWSSLKASDTAVYYCARFCSPWGQGTLVTV VL: LQSVLTQPPSVSEAPRQRVTISCSGSSSNIGNNAVNWYQQLPGKAPKLLIYYDDLLPSGVSDRFSGSKSGTSASLAISGLQSEDEADYYCAAWDDSLCVFGGGTKLTVLG", "values": [{"measurement": "对TNF-α诱导的L929细胞毒性的抑制作用 (L929 cytotoxicity neutralisation, MTT) IC50", "result": "~15", "unit": "nM"}]}]}
